The record followed here is article PMC3907796, “The C-Terminal Region of G72 Increases D-Amino Acid Oxidase Activity” (International Journal of Molecular Sciences, 2013).

No end group written: not given here. *: point of attachment. Biotin = O=C1N[C@H]2[C@H](CS[C@H]2CCCCC(=O)*)N1

To fix the notation:
B1: N-terminally biotinylated G72(138-153) peptide (peptide, UniProt P59103 138-153, looked up)
peptide: Biotin-KDQSCNHKEITSTKAE
B3: DAO-6H (recombinant D-amino acid oxidase with C-terminal (His)6) (enzyme)
chain: not shown
notes: D-amino acid oxidase (DAO), cDNA amplified with DAO-F'-NdeI/DAO-R'-XhoI (the primers of the full-length 1044 bp cDNA, GI:30524341), in pET23a(+); Detected in the pull-down with anti-His-tag; also called recombinant DAO; source: E. coli BL21(DE3)pLysS, purified (HisTrap FF); not shown: His6, C-terminal, kept
B4: N-terminally biotinylated G72(123-153) peptide (peptide, UniProt P59103 123-153, looked up)
peptide: Biotin-RQPLERMWTCNYNQQKDQSCNHKEITSTKAE
modifications: cysteine pairing not given here

Test [1] deals with B3. In words: cell-based or functional assay.
The target in test [2] is T1, BD-G72 (full-length G72 N-terminally tagged with the binding domain) (UniProt P59103 1-153).
T1 construct: probably pGBKT7; The BD fusion was detected with anti-c-Myc; also called full-length BD-G72; G72 isoform 1; source: yeast two-hybrid fusion, S. cerevisiae AH109; not shown: from the vector pGBDT7), N-terminal, kept
T1 sequence (looked up): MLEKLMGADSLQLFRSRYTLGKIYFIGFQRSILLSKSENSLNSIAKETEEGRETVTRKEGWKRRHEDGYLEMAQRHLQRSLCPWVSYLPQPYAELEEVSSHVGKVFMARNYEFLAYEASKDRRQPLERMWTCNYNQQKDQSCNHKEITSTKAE
In words: two-hybrid; β-galactosidase activity of AH109 transformants grown in SD/-2 broth at 30 °C, normalised to yeast with the AD and BD tags alone. The settings on record: partners not purified.

Test [3] deals with B1. In words: pull-down; 10 μg biotinylated G72 peptide on streptavidin Sepharose beads, 10 μg DAO-6H in phosphate-buffered saline, 4 °C, 3 h, ten washes; DAO detected by Western blotting (anti-His-tag); beads alone as control. As to conditions: both partners purified.
Test [4] has as its target B4. Described as above. As to conditions: both partners purified.

B1: the “initial velocity (V0) of DAO activity (400 nM DAO-6H, 40 mM D-alanine, 25 °C) with 0, 1, 3, 10 μM G72(138-153); V0 at 10 μM, fold of DAO alone in parentheses” value in test [1] is 2.94 mol hydrogen peroxide produced/min/g DAO.

B2: AD-DAO (D-amino acid oxidase N-terminally tagged with the activation domain) (enzyme)
chain: not shown
notes: D-amino acid oxidase (DAO), full-length cDNA of 1044 bp, GI:30524341; The AD fusion was detected with anti-HA; source: yeast two-hybrid fusion, S. cerevisiae AH109; not shown: from the vector pGADT7), N-terminal, kept
For B2, the “relative interaction strength by β-galactosidase activity (AD tag with BD tag = 1)” value in test [2] amounted to 5.7 fold. Take B3: the “relative amount of DAO pulled down (against beads alone)” value is 2.17 fold in test [3] and 1.38 fold in test [4].

With B4, the “initial velocity (V0) of DAO activity (400 nM DAO-6H, 40 mM D-alanine, 25 °C) with 0, 1, 3, 10 μM G72(123-153); V0 at 10 μM, fold of DAO alone in parentheses” value in test [1] was 2.71 mol hydrogen peroxide produced/min/g DAO.
